Here are results for two molecules from paper PMC3164469 (Molecular Biology of the Cell, 2011).

Sequences and labels used below:
T1: SMT3–Hairless NTCT fusion protein (residues 232–358) (Drosophila melanogaster, UniProt Q02308 232-358)
T1 sequence: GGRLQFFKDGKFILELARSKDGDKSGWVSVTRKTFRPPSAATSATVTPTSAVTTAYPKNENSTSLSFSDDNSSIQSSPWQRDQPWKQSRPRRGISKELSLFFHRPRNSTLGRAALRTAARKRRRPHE

B1: core Su(H) (amino acids 98–523) (domain or fragment)
chain: not shown

Assay [1] concerns the target T1, SMT3–Hairless NTCT fusion protein …. Description: ITC.
Assay [2] addresses B1. Description: native gel or EMSA.

Take B1: the stoichiometry N (commonly the number of molecules, sites or subunits per partner or assembly) in assay [1] stood at 0.9.

On to GGRLQFFKDGKFILELARSKDGDKSGWVSVTRKTFRPP (domain or fragment) [Hairless NT (amino acids 232–269)], for which the binding result in assay [2] is on record as “binds”.
